From publication PMC12098869, “An mRNA-display derived cyclic peptide scaffold reveals the substrate binding interactions of an N-terminal cysteine oxidase” (Nature Communications, 2025)
Several values for one entry are separate records, joined by “and”; a condition that tells them apart may be missing. Identical values can stand only once. Blank lines part the entries; values can stand above or below the molecule they belong to. Where a SMILES comes first, the peptide text is derived from it. Bridges are numbered along the chain shown (N, C = ends). Where no end group is shown, it is not given here. Side-chain parts run from the residue outwards. [ ]: non-standard residue; d: D form. Orn = NCCC[C@H](N)C(=O)O; Dap = NC[C@H](N)C(=O)O

What was measured:
human ADO = molecular target: T1, human ADO (Homo sapiens, UniProt Q96SZ5); assay: SPR single-cycle kinetic (SCK) binding of cyclic peptides to ADO; settings: for KD: Supplementary Fig. 4 series
T1 construct: Full-length human ADO (Uniprot ID: Q96SZ5) was cloned; made in house; host or cells: E. coli Rosetta2(DE3)
T1 sequence (Q96SZ5 1-270): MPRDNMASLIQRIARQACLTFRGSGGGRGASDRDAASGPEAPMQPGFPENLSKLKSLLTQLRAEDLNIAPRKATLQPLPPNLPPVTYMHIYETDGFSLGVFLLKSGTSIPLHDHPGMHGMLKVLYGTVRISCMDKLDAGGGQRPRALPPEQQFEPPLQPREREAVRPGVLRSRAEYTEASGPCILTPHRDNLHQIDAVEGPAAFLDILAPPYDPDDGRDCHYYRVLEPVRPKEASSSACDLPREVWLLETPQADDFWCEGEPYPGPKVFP
Excerpt: After six cycles, clear enrichment of several CPs was observed by next-generation sequencing. The most enriched CPs (CP1-8, numbered according to their percentage enrichment in the final selection round) were selected for subsequent analysis (Table 1). CP1, 5, 6 and 7 are related in sequence, while CP2, 3, 4, and 8 are unique compositions (Fig. 1b). These CPs were subsequently produced by solid-phase peptide synthesis (SPPS) and analysed by surface plasmon resonance (SPR) using single cycle kinetic (SCK) analysis to confirm and quantify binding to ADO. ADO could interact with each CP to varying degrees (Supplementary Fig. 4, Table 1, Fig. 1dleft).
SPR measurements were made using a Biacore T200 (Cytiva) instrument and data were analysed using the Biacore Insight Evaluation Software. Biotinylated-ADO was immobilised on a Biotin CAP chip (Cytiva) with a target density of ∼2500–3000 RU and peptide/protein substrates were injected over the chip. Experiments were conducted at 4 °C using both multi-cycle (fit using the equilibrium steady state affinity 1:1 binding model) and single-cycle kinetics mode (fit using a 1:1 binding model). A buffer comprising 20 mM HEPES pH 7.5, 500 mM NaCl, 10 mM DTT, and 0.1% (v/v) tween-20 was used as the running buffer at a flow rate of 50 μL/minute.

[1] = molecular target: T2, 2-aminoethanethiol dioxygenase (ADO), full-length human, N-terminally His-tagged and biotinylated … (human, UniProt Q96SZ5 1-270, biotin (biotinylated during expression, 0.2 mM biotin added)); assay: SPR; single-cycle kinetics (1:1 binding model); biotinylated ADO immobilised on a Biotin CAP chip (~2500-3000 RU), cyclic peptide injected; Biacore T200, 4 °C; 20 mM HEPES pH 7.5, 500 mM NaCl, 10 mM DTT, 0.1% tween-20; 50 µL/minute; each cell is one of three independent measurements; settings: both partners purified
T2 construct: 2-aminoethanethiol dioxygenase (ADO), human, UniProt Q96SZ5, full length; Immobilised through its biotin on a Biotin CAP chip for SPR; also called wild type ADO; Biotinylated-ADO; source: E. coli Rosetta2(DE3), purified (Ni-NTA, SEC); not shown: biotinylation tag (from the vector pQE80L-Navi), N-terminal, kept
T2 sequence (looked up): T1 sequence (Q96SZ5 1-270)
In short: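 Biotinylated full-length human ADO was made in E. coli with a His tag, then purified by nickel affinity and gel filtration. It was captured on a Biotin CAP chip at about 2500–3000 RU in a Biacore T200, and cyclic peptides were flowed over it. The run was at 4 °C in HEPES pH 7.5 buffer with 500 mM NaCl, DTT and tween-20, at 50 µL/minute. Kd came from a 1:1 binding fit of single-cycle kinetic sensorgrams, with three independent measurements.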

[2] = molecular target: T3, 2-aminoethanethiol dioxygenase (ADO), full-length human, N-terminally His-tagged and biotinylated … (human, UniProt Q96SZ5 1-270, biotin (biotinylated during expression, 0.2 mM biotin added)); assay: cell-based or functional assay
T3 sequence (looked up): T1 sequence (Q96SZ5 1-270)

[3] = molecular target: T3, 2-aminoethanethiol dioxygenase (ADO), …; assay: SPR; single cycle kinetic (SCK) analysis, 1:1 binding model; biotinylated ADO immobilised on a Biotin CAP chip (~2500-3000 RU), cyclic peptides injected; 4 °C; 20 mM HEPES pH 7.5, 500 mM NaCl, 10 mM DTT, 0.1% tween-20; 50 μL/minute; settings: both partners purified
[4] = Fig. 3c series, geometric mean of a minimum of three independent measurements (n = 3)
[5] = 1:1 binding model, 4 °C, geometric mean of a minimum of three independent measurements (n = 3) with standard error

Molecule: CC[C@H](C)[C@@H]1NC(=O)[C@H](Cc2ccc(O)cc2)NC(=O)CSC[C@@H](C(N)=O)NC(=O)[C@H](CCC(N)=O)NC(=O)[C@H](CCCNC(=N)N)NC(=O)[C@H](Cc2c[nH]cn2)NC(=O)[C@H](CO)NC(=O)CNC(=O)[C@H](CCCCNC(=O)[C@@H](N)CS)NC(=O)[C@H](Cc2c[nH]c3ccccc23)NC(=O)[C@H](Cc2ccccc2)NC(=O)[C@H]([C@@H](C)O)NC(=O)[C@H](CCCCN)NC(=O)[C@H](C(C)C)NC1=O [CP6-L8K-Cys] ({CH2CO}-YIVKTFWK(Cys)GSHRQC-NH2; thioether N-14)
Kd (human ADO; Fig. 3c / Supplementary Fig. 15 series, replicate 3): 13.6 nM

Molecule: CC(C)C[C@@H]1NC(=O)[C@H](CCCNC(=N)N)NC(=O)CNC(=O)[C@H](CCCNC(=N)N)NC(=O)[C@H](CCCNC(=N)N)NC(=O)[C@@H]2CCCN2C(=O)[C@H](Cc2ccccc2)NC(=O)CNC(=O)[C@H](CCC(=O)O)NC(=O)[C@H](CC(N)=O)NC(=O)[C@H](CC(C)C)NC(=O)[C@H]([C@@H](C)O)NC(=O)[C@H](Cc2c[nH]c3ccccc23)NC(=O)[C@H](Cc2ccc(O)cc2)NC(=O)CSC[C@@H](C(N)=O)NC1=O [CP3] ({CH2CO}-YWTLNEGFPRRGRLC-NH2; thioether N-15; N-terminus and C-terminus assumed)
KD (human ADO; replicate 1): 13500 nM
KD (human ADO; replicate 2): 5000 nM
KD (human ADO; replicate 3): 6630 nM

Molecule: CC[C@H](C)[C@@H]1NC(=O)[C@H](Cc2ccc(O)cc2)NC(=O)CSC[C@@H](C(N)=O)NC(=O)[C@H](CCC(N)=O)NC(=O)[C@H](CCCNC(=N)N)NC(=O)[C@H](Cc2c[nH]cn2)NC(=O)[C@H](CO)NC(=O)CNC(=O)[C@H](CCCCNC(=O)[C@@H](N)CO)NC(=O)[C@H](Cc2c[nH]c3ccccc23)NC(=O)[C@H](Cc2ccccc2)NC(=O)[C@H]([C@@H](C)O)NC(=O)[C@H](CCCCN)NC(=O)[C@H](C(C)C)NC1=O [CP6-L8K-Ser] ({CH2CO}-YIVKTFWK(Ser)GSHRQC-NH2; thioether N-14)
Kd (human ADO; [4]): 21 ± 4.9 nM

Molecule: CC[C@H](C)[C@@H]1NC(=O)[C@H](Cc2ccc(O)cc2)NC(=O)CSC[C@@H](C(N)=O)NC(=O)[C@H](CCC(N)=O)NC(=O)[C@H](CCCNC(=N)N)NC(=O)[C@H](Cc2c[nH]cn2)NC(=O)[C@H](CO)NC(=O)CNC(=O)[C@H](CCCNC(=O)[C@@H](N)CO)NC(=O)[C@H](Cc2c[nH]c3ccccc23)NC(=O)[C@H](Cc2ccccc2)NC(=O)[C@H]([C@@H](C)O)NC(=O)[C@H](CCCCN)NC(=O)[C@H](C(C)C)NC1=O [CP6-L8O-Ser] ({CH2CO}-YIVKTFW[Orn](Ser)GSHRQC-NH2; thioether N-14)
Kd (human ADO; [4]): 140 ± 120 nM

Molecule: CC[C@H](C)[C@@H]1NC(=O)[C@H](CCCNC(=N)N)NC(=O)[C@H](Cc2ccc(O)cc2)NC(=O)CSC[C@@H](C(=O)N2CCC[C@H]2C(=O)N[C@@H](CS)C(N)=O)NC(=O)[C@H](CC(C)C)NC(=O)[C@H](C(C)C)NC(=O)[C@H](Cc2c[nH]c3ccccc23)NC(=O)[C@H](CO)NC(=O)[C@H](CCCNC(=N)N)NC(=O)[C@H](Cc2ccccc2)NC(=O)[C@H](C(C)C)NC(=O)[C@H](CCCNC(=N)N)NC(=O)[C@H]([C@@H](C)CC)NC1=O [CP2] ({CH2CO}-YRIIRVFRSWVLCPC-NH2; thioether N-13; N-terminus and C-terminus assumed)
KD (human ADO; replicate 1): 6280 nM
KD (human ADO; replicate 2): 5190 nM
KD (human ADO; replicate 3): 4690 nM

Molecule: CC(C)C[C@@H]1NC(=O)[C@H](Cc2c[nH]c3ccccc23)NC(=O)[C@H]([C@@H](C)O)NC(=O)[C@H]([C@@H](C)O)NC(=O)[C@H](CO)NC(=O)[C@H](C(C)C)NC(=O)[C@H]([C@@H](C)O)NC(=O)[C@H](Cc2ccc(O)cc2)NC(=O)CSC[C@@H](C(N)=O)NC(=O)[C@H](CCC(N)=O)NC(=O)[C@H](CCCNC(=N)N)NC(=O)[C@H](Cc2c[nH]cn2)NC(=O)[C@H]([C@@H](C)O)NC(=O)CNC1=O [CP1] ({CH2CO}-YTVSTTWLGTHRQC-NH2; thioether N-14)
Kd (human ADO; [5]): 35.4 ± 2.11 nM

Molecule: {CH2CO}-YIVKTFW[Dap]([Gly-Ser])GSHRQC (thioether N-14) [CP6-L8d-Gly-Ser]
Kd [1]: 154 nM and 144 nM and 145 nM

Molecule: {CH2CO}-YIVKTFW[Dap]([Lys-Ser])GSHRQC (thioether N-14) [CP6-L8d-Lys-Ser]
Kd [1]: 461 nM and 530 nM and 472 nM

The remaining lines, values ahead:

Kd (human ADO; [5]): 66.2 ± 0.86 nM
Kd (human ADO; [4]): 51 ± 0.25 nM
Molecule: CC[C@H](C)[C@@H]1NC(=O)[C@H](Cc2ccc(O)cc2)NC(=O)CSC[C@@H](C(N)=O)NC(=O)[C@H](CCC(N)=O)NC(=O)[C@H](CCCNC(=N)N)NC(=O)[C@H](Cc2c[nH]cn2)NC(=O)[C@H](CO)NC(=O)CNC(=O)[C@H](CC(C)C)NC(=O)[C@H](Cc2c[nH]c3ccccc23)NC(=O)[C@H](Cc2ccccc2)NC(=O)[C@H]([C@@H](C)O)NC(=O)[C@H](CCCCN)NC(=O)[C@H](C(C)C)NC1=O [CP6] ({CH2CO}-YIVKTFWLGSHRQC-NH2; thioether N-14)

Kd [1]: 79.9 nM and 77.7 nM and 78.1 nM
Molecule: {CH2CO}-YIVKTFW[Dap]([Phe-Ser])GSHRQC (thioether N-14) [CP6-L8d-Phe-Ser]

IC50 of inhibition of ADO activity (oxidation of RGS5_(2-15), LCMS) [2]: > 50000 nM
B1: cyclic peptide CP4 (peptide)
peptide: {CH2CO}-YYYVLGTILVKRYRFC
modifications: thioether N-16
notes: cyclic peptide selected against ADO by RaPID mRNA display; source: synthetic peptide (solid-phase peptide synthesis)

Kd [3]: > 5000 nM
B2: cyclic peptide CP3 (peptide)
peptide: {CH2CO}-YWTLNEGFPRRGRLC
modifications: thioether N-15
notes: as for B1

Kd [3]: 35 nM
IC50 of inhibition of ADO activity (oxidation of RGS5_(2-15), LCMS) [2]: 1720 nM
B3: cyclic peptide CP1 (peptide)
peptide: {CH2CO}-YTVSTTWLGTHRQC
modifications: thioether N-14
notes: cyclic peptide selected against ADO by RaPID mRNA display; Details of synthesis are in the supplementary methods; source: synthetic peptide (solid-phase peptide synthesis)

Kd [3]: 40 nM
IC50 of inhibition of ADO activity (oxidation of RGS5_(2-15), LCMS) [2]: 5680 nM
B4: cyclic peptide CP5 (peptide)
peptide: {CH2CO}-YITITSWLGTLRQC
modifications: thioether N-14
notes: as for B1

Kd [3]: > 5000 nM
IC50 of inhibition of ADO activity (oxidation of RGS5_(2-15), LCMS) [2]: > 50000 nM
B5: cyclic peptide CP2 (peptide)
peptide: {CH2CO}-YRIIRVFRSWVLCPC
modifications: thioether N-13
notes: as for B1

Kd [3]: 4.7 nM
IC50 of inhibition of ADO activity (oxidation of RGS5_(2-15), LCMS) [2]: 1730 nM
B6: cyclic peptide CP8 (peptide)
peptide: {CH2CO}-YTYRYPSILRVWARYGC
modifications: thioether N-17
notes: as for B1

Kd [3]: 66 nM
IC50 of inhibition of ADO activity (oxidation of RGS5_(2-15), LCMS) [2]: 950 nM
B7: cyclic peptide CP6 (peptide)
peptide: {CH2CO}-YIVKTFWLGSHRQC-NH2
modifications: thioether N-14
SMILES: CC[C@H](C)[C@@H]1NC(=O)[C@H](Cc2ccc(O)cc2)NC(=O)CSC[C@@H](C(N)=O)NC(=O)[C@H](CCC(N)=O)NC(=O)[C@H](CCCNC(=N)N)NC(=O)[C@H](Cc2c[nH]cn2)NC(=O)[C@H](CO)NC(=O)CNC(=O)[C@H](CC(C)C)NC(=O)[C@H](Cc2c[nH]c3ccccc23)NC(=O)[C@H](Cc2ccccc2)NC(=O)[C@H]([C@@H](C)O)NC(=O)[C@H](CCCCN)NC(=O)[C@H](C(C)C)NC1=O
notes: cyclic peptide selected against ADO by RaPID mRNA display; also called unmodified CP6; source: synthetic peptide (solid-phase peptide synthesis)
